# B1: ICA1L peptide 451-466 (Islet cell autoantigen 1-like protein), 16-mer library wild type / NSP16 (ORF1ab Nsp16, residues 6799-7088) (parent complex)
# chain 1: QDMSAWFNLFADLDPL
# chain 2: SSQAWQPGVAMPNLYKMQRMLLEKCDLQNYGDSATLPKGIMMNVAKYTQLCQYLNTLTLAVPYNMRVIHFGAGSDKGVAPGTAVLRQWLPTGTLLVDSDLNDFVSDADSTLIGDCATVHTANKWDLIISDMYDPKTKNVTKENDSKEGFFTYICGFIQQKLALGGSVAIKITEHSWNADLYKLMGHFAWWTAFVTNVNASSSEAFLIGCNYLGKPREQIDGYVMHANYIFWRNTNPIQLSSYSLFDMSKFPLKLRGTAVMSLKEGQINDMILSLLSKGRLIIRENNRVVI
# B2: NOTCH4 peptide 1606-1621 (Neurogenic locus notch homolog protein 4), 16-mer library wild type / NSP9 (ORF1ab Nsp9, residues 4141-4253) (parent complex)
# chain 1: QGAWLGAPEPWEPLLD
# chain 2: NNELSPVALRQMSCAAGTTQTACTDDNALAYYNTTKGGRFVLALLSDLQDLKWARFPKSDGTGTIYTELEPPCRFVTDTPKGPKVKYLYFIKGLNNLNRGMVLGSLAATVRLQ
# Variants of: B1
# Experiment: bait immobilised on MaxiSorp plates (10 µg), library pre-cleared on GST, 2 h binding at 4 °C, five washes; one round per day, days 1-4; value from days 2 and 3
row,Variant,screen value
1,chain 1 QDMSAWFNLFADLEPL,"0.00108 average fractional NGS count over selection days 2 and 3 (reads of this peptide / all reads for the bait, averaged over …"
2,chain 1 QDMSAWFNLFADLDPY,"0.00657 average fractional NGS count over selection days 2 and 3 (reads of this peptide / all reads for the bait, averaged over …"
3,chain 1 QDMSAWFNLFADLDTL,"0.00148 average fractional NGS count over selection days 2 and 3 (reads of this peptide / all reads for the bait, averaged over …"
4,chain 1 QDMSAWFNLFAYLDPL,"0.000481 average fractional NGS count over selection days 2 and 3 (reads of this peptide / all reads for the bait, averaged over …"
5,chain 1 QDMSAWFNLFADLDPR,"0.000401 average fractional NGS count over selection days 2 and 3 (reads of this peptide / all reads for the bait, averaged over …"
6,chain 1 QDMSAWFNLFADFDPL,"8.42e-05 average fractional NGS count over selection days 2 and 3 (reads of this peptide / all reads for the bait, averaged over …"
7,chain 1 QDMSAWFNLFADLPPL,"0.000203 average fractional NGS count over selection days 2 and 3 (reads of this peptide / all reads for the bait, averaged over …"
8,chain 1 QDISAWFNLFADLDPL,"0.00221 average fractional NGS count over selection days 2 and 3 (reads of this peptide / all reads for the bait, averaged over …"
9,chain 1 QDMSAWFNLFADLDNL,"0.000142 average fractional NGS count over selection days 2 and 3 (reads of this peptide / all reads for the bait, averaged over …"
10,chain 1 QDMSAWFNLFADMDPL,"0.00451 average fractional NGS count over selection days 2 and 3 (reads of this peptide / all reads for the bait, averaged over …"
11,chain 1 QDMTAWFNLFADLDPL,"0.00139 average fractional NGS count over selection days 2 and 3 (reads of this peptide / all reads for the bait, averaged over …"
12,chain 1 QDMSTWFNLFADLDPL,"0.00049 average fractional NGS count over selection days 2 and 3 (reads of this peptide / all reads for the bait, averaged over …"
13,chain 1 QDMSAWFNMFADLDPL,"0.111 average fractional NGS count over selection days 2 and 3 (reads of this peptide / all reads for the bait, averaged over …"
14,chain 1 QDMSAWFTLFADLDPL,"0.000466 average fractional NGS count over selection days 2 and 3 (reads of this peptide / all reads for the bait, averaged over …"
15,chain 1 QDMSAWFNLFAHLDPL,"0.0543 average fractional NGS count over selection days 2 and 3 (reads of this peptide / all reads for the bait, averaged over …"
16,chain 1 QDMSAWFHLFADLDPL,"0.00331 average fractional NGS count over selection days 2 and 3 (reads of this peptide / all reads for the bait, averaged over …"
17,chain 1 QDMSAWFGLFADLDPL,"0.000503 average fractional NGS count over selection days 2 and 3 (reads of this peptide / all reads for the bait, averaged over …"
18,chain 1 QDMSAWFNLFAWLDPL,"0.00015 average fractional NGS count over selection days 2 and 3 (reads of this peptide / all reads for the bait, averaged over …"
19,chain 1 QDMSAWFNLFADLDGL,"0.000662 average fractional NGS count over selection days 2 and 3 (reads of this peptide / all reads for the bait, averaged over …"
20,chain 1 QDMSAWFNLFADLDPW,"0.000423 average fractional NGS count over selection days 2 and 3 (reads of this peptide / all reads for the bait, averaged over …"
21,chain 1 QDMSAWFNLFGDLDPL,"9.42e-05 average fractional NGS count over selection days 2 and 3 (reads of this peptide / all reads for the bait, averaged over …"
22,chain 1 QSMSAWFNLFADLDPL,"0.000218 average fractional NGS count over selection days 2 and 3 (reads of this peptide / all reads for the bait, averaged over …"
23,chain 1 QDMSAWFNLFADWDPL,"0.0001 average fractional NGS count over selection days 2 and 3 (reads of this peptide / all reads for the bait, averaged over …"
24,chain 1 QDMSAWWNLFADLDPL,"0.000183 average fractional NGS count over selection days 2 and 3 (reads of this peptide / all reads for the bait, averaged over …"
25,chain 1 QDMSAWFNLFADLDPM,"0.0149 average fractional NGS count over selection days 2 and 3 (reads of this peptide / all reads for the bait, averaged over …"
26,chain 1 QDMSAWFNLFADLDPT,"0.000115 average fractional NGS count over selection days 2 and 3 (reads of this peptide / all reads for the bait, averaged over …"
27,chain 1 QDMSAWFNLFADLDQL,"0.000173 average fractional NGS count over selection days 2 and 3 (reads of this peptide / all reads for the bait, averaged over …"
28,chain 1 QDMSAWFNLFADLDVL,"0.000993 average fractional NGS count over selection days 2 and 3 (reads of this peptide / all reads for the bait, averaged over …"
29,chain 1 QDMSAWLNLFADLDPL,"0.000815 average fractional NGS count over selection days 2 and 3 (reads of this peptide / all reads for the bait, averaged over …"
30,chain 1 QDMSAWFNLFADLDPV,"0.000224 average fractional NGS count over selection days 2 and 3 (reads of this peptide / all reads for the bait, averaged over …"

# Variants of: B2
# Experiment: as above
row,Variant,screen value
1,chain 1 QGAWLGAPEPWEPLMD,"0.000609 average fractional NGS count over selection days 2 and 3 (reads of this peptide / all reads for the bait, averaged over …"
2,chain 1 QGAWLGAPMPWEPLLD,"0.00679 average fractional NGS count over selection days 2 and 3 (reads of this peptide / all reads for the bait, averaged over …"
3,chain 1 QGAWLGAPEPWESLLD,"0.000244 average fractional NGS count over selection days 2 and 3 (reads of this peptide / all reads for the bait, averaged over …"
4,chain 1 QGAWLGAPEPWKPLLD,"0.00114 average fractional NGS count over selection days 2 and 3 (reads of this peptide / all reads for the bait, averaged over …"
5,chain 1 QGAWLGAPEPWMPLLD,"0.00442 average fractional NGS count over selection days 2 and 3 (reads of this peptide / all reads for the bait, averaged over …"
6,chain 1 QGAWLGAPEPWVPLLD,"0.00994 average fractional NGS count over selection days 2 and 3 (reads of this peptide / all reads for the bait, averaged over …"
7,chain 1 QGAWLGAPEPWEPRLD,"0.000211 average fractional NGS count over selection days 2 and 3 (reads of this peptide / all reads for the bait, averaged over …"
8,chain 1 QGAWLGFPEPWEPLLD,"0.000134 average fractional NGS count over selection days 2 and 3 (reads of this peptide / all reads for the bait, averaged over …"
9,chain 1 QGAWLGAPFPWEPLLD,"0.000135 average fractional NGS count over selection days 2 and 3 (reads of this peptide / all reads for the bait, averaged over …"
10,chain 1 QGAWLGAYEPWEPLLD,"0.000389 average fractional NGS count over selection days 2 and 3 (reads of this peptide / all reads for the bait, averaged over …"
11,chain 1 QGAWLGAPSPWEPLLD,"0.00294 average fractional NGS count over selection days 2 and 3 (reads of this peptide / all reads for the bait, averaged over …"
12,chain 1 QGAWLGAPEPWEPKLD,"0.00411 average fractional NGS count over selection days 2 and 3 (reads of this peptide / all reads for the bait, averaged over …"
13,chain 1 QGAWLGAPEPWEDLLD,"0.00132 average fractional NGS count over selection days 2 and 3 (reads of this peptide / all reads for the bait, averaged over …"
14,chain 1 QGAWLGAPETWEPLLD,"0.00164 average fractional NGS count over selection days 2 and 3 (reads of this peptide / all reads for the bait, averaged over …"
15,chain 1 QGAWLGMPEPWEPLLD,"0.000666 average fractional NGS count over selection days 2 and 3 (reads of this peptide / all reads for the bait, averaged over …"
16,chain 1 QGAWLGAPEPWEPLED,"0.00221 average fractional NGS count over selection days 2 and 3 (reads of this peptide / all reads for the bait, averaged over …"
17,chain 1 QGAWFGAPEPWEPLLD,"0.000119 average fractional NGS count over selection days 2 and 3 (reads of this peptide / all reads for the bait, averaged over …"
18,chain 1 QGAWLGNPEPWEPLLD,"0.00161 average fractional NGS count over selection days 2 and 3 (reads of this peptide / all reads for the bait, averaged over …"
19,chain 1 QGAWLGAPEPWEPLSD,"0.00194 average fractional NGS count over selection days 2 and 3 (reads of this peptide / all reads for the bait, averaged over …"
20,chain 1 QGAWLGAPEPWNPLLD,"0.00209 average fractional NGS count over selection days 2 and 3 (reads of this peptide / all reads for the bait, averaged over …"
21,chain 1 QGAWLGAPEPGEPLLD,"0.0061 average fractional NGS count over selection days 2 and 3 (reads of this peptide / all reads for the bait, averaged over …"
22,chain 1 QGAWLGAWEPWEPLLD,"0.000478 average fractional NGS count over selection days 2 and 3 (reads of this peptide / all reads for the bait, averaged over …"
23,chain 1 QGAWLGATEPWEPLLD,"0.001 average fractional NGS count over selection days 2 and 3 (reads of this peptide / all reads for the bait, averaged over …"
24,chain 1 QGAWLGAPEPFEPLLD,"0.0024 average fractional NGS count over selection days 2 and 3 (reads of this peptide / all reads for the bait, averaged over …"
25,chain 1 QGAWLGADEPWEPLLD,"0.000161 average fractional NGS count over selection days 2 and 3 (reads of this peptide / all reads for the bait, averaged over …"
26,chain 1 QGAWLGAPEPWETLLD,"0.000368 average fractional NGS count over selection days 2 and 3 (reads of this peptide / all reads for the bait, averaged over …"
